In the supplement of paper PMC10567573:
± gives the standard deviation.

Test: protein stability index of a GFP-peptide fusion (GPS, HEK-293T) (PSI 1-6); higher = more stable
[1] = treatment: DMSO, c terminus: a fixed tail appended
[2] = treatment: MLN4924 1 uM, 8 h, c terminus: a fixed tail appended
[3] = treatment: DMSO, c terminus: native
[4] = treatment: MLN4924 1 uM, 8 h, c terminus: native
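Note: 24-mer peptide tiles fused after GFP, lentivirally expressed, FACS-sorted into six equal bins by GFP/DsRed ratio, decoded by Illumina sequencing, PSI is the read-weighted mean bin number.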

Sequence | protein stability index [1] | protein stability index [2] | protein stability index [3] | protein stability index [4]
LVEAVLSGEVLNGAAVVRPPGHHA [HDAC6] | 2.27 ± 0.2 | 2.27 ± 0.34 |  | 
KLPSSGSGKRLSGVSSVDSAFSSR [RIPK4] | 3.9 ± 0.095 | 3.99 ± 0.4 |  | 
FLKAVLRQERVSLYPFQIHSIALS [CDS1] | 2.01 ± 0.23 | 2.42 ± 0.91 |  | 
LLFACSPPPASQPVVKALFGASAA [CDC25A] | 2.44 ± 0.12 | 2.35 ± 0.12 |  | 
KPLTLEALGHLGNDDSADYQHFLQ [DLC1] | 4.23 ± 0.12 | 4.33 ± 0.15 |  | 
TTTLEGSPSVPCIFCEEHFPVAEQ [ZNF277] | 4.17 ± 0.27 | 4.32 ± 0.26 |  | 
QKYKLFQQQQLTFTAALEHCRENA [SPACA9] | 2.86 ± 0.24 | 3.12 ± 0.29 |  | 
VEILDLNDNSPSFATPEREMRISE [PCDHGC5] | 4.08 ± 0.31 | 4.2 ± 0.28 |  | 
VCSDKRIPGFKFDNSLINQIENLN [LOXL2] | 2.56 ± 0.26 | 3.01 ± 0.25 |  | 
NIRPSSSGGYWVGMSTIRPNPGFS [APMAP] | 2.61 ± 1 | 2.65 ± 0.37 |  | 
VCDLQSLLGYTPEELHAMLDVKPD [ETS1] | 4.04 ± 0.21 | 4.07 ± 0.12 |  | 
CNFSIPEELEFQYRRVNELLLSIL [ZER1] | 2.34 ± 0.44 | 2.32 ± 0.42 |  | 
MSDTAVADTRRLNSKPQDLTDAYG [SNX12] | 4.96 ± 0.24 | 5.06 ± 0.14 |  | 
LNGDYGENIYPYEEDKDEKSSIYE [MIA2] | 3.78 ± 0.7 | 3.94 ± 0.72 |  | 
AESFLLKSPIAPCSLDKRVILIFH [CDC25B] | 2.75 ± 0.73 | 2.68 ± 0.96 |  | 
CIENNIDLQVNRNFSLATNTKYSV [R3HDM1] | 2.59 ± 0.24 | 2.31 ± 0.43 |  | 
MAKRIGKDLSNTFAKLEKLTILAK [STX5] | 2.77 ± 0.69 | 2.77 ± 0.53 |  | 
SVLEQLELQEKQKNEKLISLQEQL [TAF7L] | 4.24 ± 0.25 | 4.19 ± 0.3 |  | 
DPSVRLKIASLLGLLSKTAGFSPD [INTS4] | 2.57 ± 0.46 | 2.38 ± 0.26 |  | 
NWLIKYDCPMDSSSSRDTDWVVVK [PI4K2A] | 2.83 ± 0.77 | 3.1 ± 0.17 |  | 
AEESNPPLQDFPNSISSDKEATVP [MIA2] | 5.41 ± 0.1 | 5.36 ± 0.25 |  | 
PSCLACNRQCLCSAESMVEYGTCM [SPRY1] | 2.84 ± 0.58 | 2.84 ± 0.48 |  | 
HIDPEIQDGSPTTSRRPSGTGTGP [PDLIM4] | 5.26 ± 0.26 | 5.42 ± 0.26 |  | 

Sequence | protein stability index [1] | protein stability index [2] | protein stability index [3] | protein stability index [4]
EAEVTILFYFFLYQYCSIHCSDRK [CSTF3] | 2.57 ± 0.56 | 2.53 ± 0.15 |  | 
SDLSRSSRGELIPISPSTEVGGSG [MYBL2] | 5 ± 0.4 | 4.86 ± 0.34 |  | 
ERSARYQYFVVDPMAEYNMPQYIL [PTPRD] | 2.01 ± 0.28 | 2.74 ± 0.99 |  | 
IVRRFLNICENTEGAIAVHCKAGL [CDC14A] | 2.36 ± 0.39 | 2.11 ± 0.23 |  | 
MSVSEIFVELQGFLAAEQDIREEI [TSN] | 2.39 ± 0.42 | 2.72 ± 0.26 |  | 
WKKLVLVDRNTRPGPQDPEESASR [ELOA2] | 4.28 ± 0.16 | 4.46 ± 0.11 |  | 
ELERFVNLHSLALDFCDFTAEMAR [FBXO33] | 2.23 ± 0.11 | 2.61 ± 0.29 |  | 
DQVMEFSWSALWNITDETPDNCEM [ZER1] | 4.12 ± 0.27 | 4.04 ± 0.5 |  | 
HHKTYDPTYSDFCQFRPPVRVNDG [VDR] | 3.38 ± 0.29 | 3.28 ± 0.16 |  | 
VSASGKEMDWAQMACHRCLVYLGD [SMG5] | 2.1 ± 0.36 | 2.21 ± 0.52 |  | 
EKSGSAEPFVLPASSVESTLPVLE [FBXO34] | 5.08 ± 0.39 | 5.01 ± 0.34 |  | 
PVTCCDVSSNNRLVVTGSGEHASV [TLE6] | 4.19 ± 0.22 | 4.37 ± 0.16 |  | 
KGKVLAQQGEYSEAIPILRAALKL [FKBP8] | 2.37 ± 0.38 | 2.42 ± 0.56 |  | 
DLEAVVPQNGSETGWARKGLGNTW [ATP23] | 3.42 ± 0.2 | 3.38 ± 0.44 |  | 
FGRLVANVLKSYIGLGHIYSGTFA [CLCN6] | 2.94 ± 0.42 | 2.79 ± 0.33 |  | 
FVKDPQGRIIAVFKPKNEEPYGHL [PI4K2A] | 2.32 ± 0.26 | 2.9 ± 0.23 |  | 
AEEFEQPTLSCEKYLTYDQLRKQK [ELOA2] | 4.71 ± 0.31 | 4.9 ± 0.11 |  | 
IREDRDRARLDSMVLLIMKLDQLD [DLC1] | 2.35 ± 0.45 | 2.18 ± 0.32 |  | 
TVAGSLNDFSYLHTNCFELSIYVG [CPXM2] | 2.79 ± 0.78 | 2.55 ± 0.7 |  | 
AVLLQLYVATEAILIALVGATPSY [SLC22A15] | 3.33 ± 0.37 | 3.26 ± 0.52 |  | 
EERRVVHASGDASYSAGDSGDAAA [EPB41L3] | 5.49 ± 0.32 | 5.42 ± 0.17 |  | 
PPPGSLSRTQEPSLGKQKVFIIRK [SOAT2] | 3.51 ± 0.17 | 3.73 ± 0.17 |  | 
EGLLRFSSWPFSIQDVVQPLTLQV [AUP1] | 2.85 ± 0.76 | 2.98 ± 1 |  | 

Sequence | protein stability index [1] | protein stability index [2] | protein stability index [3] | protein stability index [4]
NLFEGMIWFIVPISCVICNDIMAY [CDS2] | 3.44 ± 0.44 | 3.26 ± 0.74 |  | 
GTGRSAKEQVLRKGTENLQRAQAE [FCHSD1] | 5.09 ± 0.19 | 5.02 ± 0.4 |  | 
GGYNLASVSVWDLAAPSLHVKEQL [TLE6] | 2.38 ± 0.16 | 2.68 ± 0.33 |  | 
VPTPLTNVQILLPVGEPVTNVRLQ [FCHO1] | 3.35 ± 0.34 | 3.36 ± 0.33 |  | 
DREVAIYSKESIIFGASSVDFSLS [GNB5] | 2.98 ± 0.17 | 3.2 ± 0.27 |  | 
TFLPDNFSPAKPKPSKELKPLLGS [MYORG] | 3.52 ± 0.088 | 3.69 ± 0.28 |  | 
KGEVPKGSCEDEPMDSTMDDAVAG [ATE1] | 5.48 ± 0.28 | 5.61 ± 0.17 |  | 
WKESKGKDREYTDIIRKQVLGTKV [CDC34] | 3.66 ± 0.17 | 3.7 ± 0.4 |  | 
MEDGSLDITQSIEDDPLLDAQLLP [TMEM192] | 5.28 ± 0.24 | 5.18 ± 0.16 |  | 
YSYMSPNKCSGMRFPLQEENSVTH [KMT5A] | 3.35 ± 0.25 | 3.14 ± 0.1 |  | 
EDLEDLGAVAPPVSGDLTKEDIDL [NFE2L1] | 5.71 ± 0.4 | 5.3 ± 0.76 |  | 
NDFCSFYNILKTCRGHTLERSVFS [CARM1] | 2.78 ± 0.6 | 2.4 ± 0.3 |  | 
VYPKEFHLNRGNHEDHMVNLRYGF [PPEF2] | 2.69 ± 0.29 | 2.71 ± 0.36 |  | 
SSFFTCNQKCQLRLLKTLETSRSH [ATP23] | 2.44 ± 0.31 | 2.58 ± 0.33 |  | 
PERRRSPGPAPGSPGELEEDLLLP [WEE1] | 5.33 ± 0.28 | 5.37 ± 0.38 |  | 
LQREKEFKAKEAAALGSRGSCSTE [ATP6V1G1] | 5.12 ± 0.14 | 5.1 ± 0.48 |  | 
CRCVASPPPDAAATAASSSASSPA [SLC25A25] | 4.52 ± 0.22 | 4.35 ± 0.29 |  | 
RLFLVEDLVDSLKLAVFMWLMTYV [RTN3] | 2.72 ± 0.65 | 2.64 ± 0.78 |  | 
YGCKVADIKKVNNFIREQDLYALK [LYSMD4] | 2.27 ± 0.22 | 2.39 ± 0.21 |  | 
YLCKRVPHTVLDRQLLCLIDYYES [CEP70] | 2.1 ± 0.58 | 2.21 ± 0.32 |  | 
LNKLYPTHACREYLKNLPLLSKYC [TPH1] | 2.41 ± 0.45 | 2.23 ± 0.46 |  | 
ASPVPESSLTADLLSVDAFAAPSP [SNAP91] | 4.88 ± 0.28 | 4.97 ± 0.15 |  | 
QFHCHKAVLASCSQYFRSLFSSHP [KLHL14] | 2.95 ± 0.43 | 2.81 ± 0.4 |  | 

Sequence | protein stability index [1] | protein stability index [2] | protein stability index [3] | protein stability index [4]
EGEEDATSEVDKRRTRPRHHHGRS [CHGB] | 5.35 ± 0.47 | 5.33 ± 0.28 |  | 
ENTAETITRVLYEVFIEWGISAKV [ZBED1] | 2.82 ± 0.088 | 2.78 ± 0.72 |  | 
AFDFDYGNCKYKVDCACLKENPEC [KMT2E] | 3.53 ± 0.17 | 3.54 ± 0.42 |  | 
LLKRIKKCCGMRNTDVSMENMVTV [KCNK9] | 2.22 ± 0.52 | 2.32 ± 0.25 |  | 
QQSPAAVSMETYHVTLTLPPTQLE [C2CD2L] | 3.37 ± 0.35 | 3.48 ± 0.35 |  | 
ELVENIKSVLKSDEEHMEEAITSA [FAM189A2] | 3.64 ± 0.16 | 3.79 ± 0.41 |  | 
QGSAVTLKTSKMALSPSATAKRIN [CDC14A] | 4.22 ± 0.25 | 4.44 ± 0.18 |  | 
KALEDFEDLCDRVFSDEDSELDN [FAM9B] |  |  | 4.98 ± 0.16 | 5.17 ± 0.3
KADIGAPSGFKHVSHVGWDPQNGF [WAS] | 3.2 ± 0.37 | 3.33 ± 0.089 |  | 
CGKSFSRSSHLVIHERTHERERLY [ZNF263] | 2.71 ± 0.13 | 2.86 ± 0.33 |  | 
YYFIMACDQYSCALTGPVVDIVTG [DHCR7] | 3.35 ± 0.17 | 3.26 ± 0.53 |  | 
SLGYGFVNYSDPNDADKAINTLNG [ELAVL3] | 3.76 ± 0.22 | 3.98 ± 0.18 |  | 
YDPFRDAVTLRCGHNFCRGCVSRC [TRIM35] | 2.69 ± 0.46 | 2.74 ± 0.4 |  | 
AVVSCTPVHLVDKLPLPIALRSHL [RAB40B] | 2.65 ± 0.12 | 1.98 ± 0.41 |  | 
KSHLIFPQPNYADTLISQESCEKN [PCDHGA10] | 4.32 ± 0.17 | 4.32 ± 0.21 |  | 
MFPVAPKPQDSSQPSDRLMTEKQQ [CEP70] | 5.28 ± 0.2 | 5.24 ± 0.11 |  | 
RSFWELIGEAAKSVKLERPVRGH [S100A14] |  |  | 2.82 ± 0.81 | 2.65 ± 0.62
DSLKFAVLMWLLTYVGALFNGLTL [RTN1] | 3.69 ± 1.4 | 3.378 ± 0.013 |  | 
KERAAGGGAGSSEDDAQSRRDEQD [GOLPH3] | 5.65 ± 0.35 | 5.67 ± 0.15 |  | 
DIELGCSTPLMEAAQEGHLELVKY [ANKRD17] | 4.03 ± 0.29 | 4.18 ± 0.27 |  | 
